Measurements: patent publication US20250195573A1

Biological target: MART-1(27-35) presented by HLA-A2 on A375 melanoma cells (human) (UniProt Q16655)
Assay: cell-based or functional assay

TNFa, IFNg, or IL-2 in supernatant by ELISA, T cells with peptide-pulsed A375 cells (× less antigen): 10
Substance: DMF5 β:CD3z:MyD88 (from UniProt P20963 52-164; Q99836 1-155) (TCR)
